Assay results published in patent US9163227B2, “Anti-diabetic compounds” (PFIZER INC., priority 2011, dated 2015).
Where two headings read alike, the source gives them in different places. Marks after values point to notes of the source that are not given here.

Experiments:
[1] = test system: high-fat diet-induced obese mice; experiment: Serum lipids in DIO mice; assay type: in vivo; details: day 10, 1 mg/kg QD
[2] = biological target: Glut1 mRNA expression in differentiated 3T3-L1 adipocytes (Mus musculus, UniProt P16092+Q99N32); experiment: Glut1 Taqman assay; assay type: cell-based
Protocol: Differentiated 3T3-L1 adipocytes were used to measure the Glut1 mRNA expression by qPCR method. Overnight serum starved day 10-14 differentiated 3T3-L1 adipocytes were treated with compounds for 6 hrs. Total RNA was extracted from these cells, and Glut1 and GAPDH mRNA expression was measured using a Quantitect Probe RT-PCR kit and running a quantitative real time PCR reaction in a Taqman machine (Applied Biosystems®). The bioactivity of the compounds was determined by a fold change in Glut1 mRNA levels normalized by the GAPDH mRNA levels from each sample. EC═values as measurements of the potency of the compounds were obtained from the dose response curves in the assay.
3T3-L1 adipocytes were seeded at day 8 in 24-well tissue culture plates (Falcon®, Cat#353047), and incubated in DMEM complete medium (10% FBS, 2 mM L-glutamine, 1% P/S) at 37° C., 5% CO2. […] The medium was aspirated, and then RNA extracted from the cells using the RNeasy mini Kit according to the manufacturer's instructions. RNA was measured at A260 nm using the Spectramax® Plus spectrophotometer.
In Glut1 Taqman assay, differentiated 3T3-L1 adipocytes were used to measure the Glut1 mRNA expression by real-time quantitative PCR (qPCR) method described below. Overnight serum starved day 10-14 differentiated 3T3-L1 adipocytes were treated with compounds for 6 hrs. Total RNA was extracted from these cells, and Glut1 and GAPDH mRNA expression was measured using a Quantitect Probe RT-PCR kit and running a real time quantitative PCR reaction in a Taqman machine. The bioactivity of the compounds was determined by a fold change in Glut1 mRNA levels normalized by the GAPDH mRNA levels from each sample. In cAMP assay, Chinese hamster ovary (CHO) cells over-expressing human GLP-1R(CHO-hGLP-1R) were seeded in 96-well plates in serum-free medium with 300 uM IBMX. Cells were incubated with compounds at RT for 1 hr. The cAMP levels were measured using a CisBio cAMP Kit according to manufacturer's instructions. The bioactivity of the compounds was determined by the EC50 values obtained from the assay (see Table 42).

[3] = test system: high-fat diet-induced obese mice; experiment: Oral glucose tolerance test in DIO mice (FGF21 conjugates); assay type: in vivo; details: day 10, 1 mg/kg QD
Protocol: (§1) The efficacy of FGF21 antibodies conjugates was evaluated in two murine obese insulin resistant models—ob/ob mice and high-fat diet-induced obese mice. For both models, male mice (6-8 weeks of age for ob/ob, 12-14 weeks of age for DIO with high-fat diet initiated at 6 weeks of age) were housed 2-4/cage and FGF21 antibody conjugates were administered by SC injection. Body weight was measured daily in the morning. Glucose tolerance was assessed by oral glucose tolerance test. Briefly, mice were fasted for 4-5 hrs in the morning of the day of testing. A basal blood sample was obtained and blood glucose levels were determined using a portable glucometer.

[4] = Body weight and liver weight in ob/ob mice; assay type: in vivo; details: for mean liver weight: FIG. 5B
Protocol: as §1

[5] = biological target: differentiated 3T3-L1 adipocytes (Mus musculus, UniProt P16092+Q99N32); experiment: Glucose uptake assay; assay type: cell-based; details: unconjugated protein (per Examples 18-21); n in parentheses
Protocol: Differentiated 3T3-L1 adipocytes were treated with compounds in the absence of serum for 24 hrs. Cells were then incubated with ^14C-2-deoxyglucose for 1 hr and glucose uptake into the cells was quantitated in Wallac 1450 MicroBeta (Trilux) instrument. Glucose uptake was expressed in counts per min (CPM). EC50 values as measurements of the potency of the compounds were obtained from the dose response curves in the assay.

[6] = test system: SCD1, MOGAT2, FoxA2 mRNA in liver; experiment: Hepatic gene expression (qPCR) in ob/ob mice; assay type: in vivo; details: day 6, 1 mg/kg QD
[7] = Mouse pharmacokinetics of FGF21 antibody conjugates; assay type: in vivo, Swiss-Webster mice; details: mouse PK; antibody conjugate at the named site (protein for FGF21ΔH)
Protocol: The PK of FGF21 antibody conjugates were examined in mice after IV or SC administration. […] Antibody conjugates concentrations in serum were determined using an ELISA which captured the FGF21 portion of the antibody conjugates through a monoclonal anti-hFGF21 antibody bound to a 96-well plate. FGF21 antibody conjugates bound to the plate were detected through an anti-hFc monoclonal antibody, and concentrations were determined using a standard curve of the PK dosing solution diluted into serum-containing assay buffer. SC bioavailability was calculated as the ratio of the area-under the curve (AUC) of the SC serum concentration profile divided by the AUC of the IV serum concentration profile.

ob/ob mice = experiment: Oral glucose tolerance test in ob/ob mice (FGF21 conjugates); assay type: in vivo; details: for mean glucose AUC % during OGTT: FIG. 6B; for Mean Glucose AUC (% of vehicle control) during OGTT: FIGS. 4A/4B
Protocol: as §1

DIO mice = experiment: Sub-chronic and single dose efficacy of ABC-1 in DIO mice (body weight, food intake, OGTT, cholesterol, liver triglycerides); assay type: in vivo; details: Table 54: DIO mice, single SC 0.6 mg/kg
Protocol: Sub Chronic Dose Efficacy. […] All compounds were dosed SC once weekly, body weight and food intake was measured twice weekly, and an OGTT was conducted on day 17, 3 days after the 3rd weekly dose. On day 20, liver and serum samples were collected for lipid analysis.
All compounds were administered SC on day 0, body weight was measured twice weekly, and OGTT was conducted on day 7, 13, and 21. […] The sustained efficacy of the ABC-1 in vivo supports once weekly dosing of the compound.
Sub Chronic Dose Efficacy. […] All compounds were administered SC once weekly. Body weight was measured twice weekly, and an OGTT was conducted 3 days after the 3rd weekly dose.

[8] = Stability assay of FGF21ΔH-D79C; assay type: physicochemical
Protocol: FGF21ΔH-D790 mutant protein was produced in E. coli and purified as described above. FGF21ΔH-D790 was expressed from 1 L of culture. A 150 mg inclusion body was obtained and 85 mg purified protein was obtained, representing a 60% yield. To test the stability of FGF21ΔH-D790 as well as FGF21ΔH (SEQ ID NO:2), freshly thawed samples were kept at 4° C. over seven days, and examined for their integrity by RP-HPLC, SEC_HPLC, Ellman assay and SDS-PAGE on day 0, 3 and 7. […] PBS (pH7.4) and 20 mM Tris-HCl 50 mM NaCl (pH7.5) made no significant difference of stability of FGF21ΔH-D79C.
It is possible that the solubility of FGF21ΔH-D79C may be reduced at pH6.0. The stability of FGF21ΔH-D79C was examined upon multiple freeze/thaw cycles. The proteins were repeated to freeze (−80 C) and thaw (4° C.) 9 times.

Chain of Glut1 mRNA expression in differentiated 3T3-L1 adipocytes (P16092 22-822): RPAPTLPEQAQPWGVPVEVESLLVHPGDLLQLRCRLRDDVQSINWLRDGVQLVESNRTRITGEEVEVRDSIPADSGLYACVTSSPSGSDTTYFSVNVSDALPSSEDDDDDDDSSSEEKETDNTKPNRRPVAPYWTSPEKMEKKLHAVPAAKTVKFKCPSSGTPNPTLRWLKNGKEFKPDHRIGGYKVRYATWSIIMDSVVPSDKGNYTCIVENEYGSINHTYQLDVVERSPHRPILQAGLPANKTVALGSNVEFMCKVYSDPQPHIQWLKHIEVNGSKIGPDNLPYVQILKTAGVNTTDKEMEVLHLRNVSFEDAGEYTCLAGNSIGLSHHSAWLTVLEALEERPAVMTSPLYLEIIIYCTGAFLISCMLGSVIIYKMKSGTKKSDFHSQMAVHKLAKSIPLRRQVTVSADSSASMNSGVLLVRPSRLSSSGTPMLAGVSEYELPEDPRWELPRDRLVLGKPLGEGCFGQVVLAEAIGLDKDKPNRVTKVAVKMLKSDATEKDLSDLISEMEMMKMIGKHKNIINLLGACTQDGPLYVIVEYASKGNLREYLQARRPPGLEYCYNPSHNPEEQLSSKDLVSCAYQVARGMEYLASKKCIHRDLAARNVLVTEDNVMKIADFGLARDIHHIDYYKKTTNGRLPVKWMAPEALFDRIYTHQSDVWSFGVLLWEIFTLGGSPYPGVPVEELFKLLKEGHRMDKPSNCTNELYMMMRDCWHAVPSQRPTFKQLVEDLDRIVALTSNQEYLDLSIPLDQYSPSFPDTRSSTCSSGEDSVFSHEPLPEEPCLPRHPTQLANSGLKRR
Chain of Glut1 mRNA expression in differentiated 3T3-L1 adipocytes (Q99N32 whole entry): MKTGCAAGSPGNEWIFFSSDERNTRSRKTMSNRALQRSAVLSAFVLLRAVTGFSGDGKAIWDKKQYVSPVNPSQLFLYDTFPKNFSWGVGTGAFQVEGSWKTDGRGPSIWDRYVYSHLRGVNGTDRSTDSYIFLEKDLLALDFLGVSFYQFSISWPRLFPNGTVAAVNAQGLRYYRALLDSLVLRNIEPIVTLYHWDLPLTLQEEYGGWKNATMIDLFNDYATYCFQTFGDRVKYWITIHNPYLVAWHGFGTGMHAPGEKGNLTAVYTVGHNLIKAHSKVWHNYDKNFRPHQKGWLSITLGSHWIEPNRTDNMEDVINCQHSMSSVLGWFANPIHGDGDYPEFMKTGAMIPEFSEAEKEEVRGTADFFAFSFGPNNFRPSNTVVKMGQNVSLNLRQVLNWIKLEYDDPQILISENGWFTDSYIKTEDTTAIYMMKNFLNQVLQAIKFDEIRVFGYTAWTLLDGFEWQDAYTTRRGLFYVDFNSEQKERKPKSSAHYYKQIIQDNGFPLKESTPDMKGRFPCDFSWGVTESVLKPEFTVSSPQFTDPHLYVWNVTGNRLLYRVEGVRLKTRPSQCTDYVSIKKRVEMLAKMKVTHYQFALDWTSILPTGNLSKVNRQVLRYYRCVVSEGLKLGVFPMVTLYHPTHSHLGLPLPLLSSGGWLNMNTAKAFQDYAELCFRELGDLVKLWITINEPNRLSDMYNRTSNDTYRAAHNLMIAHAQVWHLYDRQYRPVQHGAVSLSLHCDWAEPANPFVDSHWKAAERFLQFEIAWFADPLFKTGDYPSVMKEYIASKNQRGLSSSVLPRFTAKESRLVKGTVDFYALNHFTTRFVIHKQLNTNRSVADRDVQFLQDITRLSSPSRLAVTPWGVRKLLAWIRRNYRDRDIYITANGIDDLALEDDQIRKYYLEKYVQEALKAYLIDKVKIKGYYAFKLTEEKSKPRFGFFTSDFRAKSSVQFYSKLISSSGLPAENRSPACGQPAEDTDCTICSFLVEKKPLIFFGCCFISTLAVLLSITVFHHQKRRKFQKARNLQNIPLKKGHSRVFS
Chain of differentiated 3T3-L1 adipocytes (P16092 22-822): as the sequence (P16092 22-822) above
Chain of differentiated 3T3-L1 adipocytes (Q99N32 whole entry): as the sequence (Q99N32 whole entry) above

B1: FGF21ΔH: FGF21 with H1 absent, L146 (SEQ ID NO:2), produced from E. coli (protein, listed as Homo sapiens)
chain: PIPDSSPLLQFGGQVRQRYLYTDDAQQTEAHLEIREDGTVGGAADQSPESLLQLKALKPGVIQILGVKTSRFLCQRPDGALYGSLHFDPEACSFRELLLEDGYNVYQSEAHGLPLHLPGNKSPHRDPAPRGPARFLPLPGLPPALPEPPGILAPQPPDVGSSDPLSMVGPSQGRSPSYAS
Mean values of serum lipids NEFA (mM) (SEM) [1]: 0.40 (0.04) mM | Mean values of serum lipids TG (mg/dL) (SEM) [1]: 92 (9.6)** mg/dL | activity in Glut1 Taqman assay (in words) ([2]; 3T3-L1 adipocytes): dose-dependent Glut1 induction | EC50 ([2]; 3T3-L1 adipocytes, serum-free DMEM 0.2% BSA, 6 hrs, Taqman quantitative real-time PCR, read-out: Glut1 RNA expression EC50): 3.39 nM | EC50 ([2]; unconjugated FGF21 mutant protein, n in parentheses, read-out: Glut1 Taqman unconjugated Protein EC50): 2.3 nM | Glucose AUC during OGTT (% of vehicle control) [3]: 75*** % of vehicle control | Cumulative body weight change, mean body weight ([4]; FIG. 5A, single SC dose 0.6 mg/kg): 3.2 g | Cumulative body weight change, mean body weight ([4]; FIG. 5A, single SC dose 1 mg/kg): 2.5 g | mean liver weight ([4]; single SC dose 0.6 mg/kg): 2.4 g | mean liver weight ([4]; single SC dose 1 mg/kg): 2.2 g | Cumulative body weight change, mean body weight ([4]; FIG. 6A, single dose, dose not given): 1.9 g | EC50 [5]: 12 nM | Mean fold change of mRNA expression, FoxA2 (SEM) [6]: 1.23 (0.08) fold | Mean fold change of mRNA expression, MOGAT2 (SEM) [6]: 0.37 (0.05)** fold | Mean fold change of mRNA expression, SCD1 (SEM) [6]: 0.95 (0.06) fold | % SC BioAv [7]: 96% | IV T1/2 [7]: 24 min | SC T1/2 [7]: 30 min | mean glucose AUC % during OGTT (ob/ob mice; ob/ob mice, single dose, dose not given): 63% | Mean Glucose AUC (% of vehicle control) during OGTT (ob/ob mice; ob/ob mice, single SC dose 0.6 mg/kg): 103 % of vehicle control | Mean Glucose AUC (% of vehicle control) during OGTT (ob/ob mice; ob/ob mice, single SC dose 1 mg/kg): 74 % of vehicle control | Mean Glucose AUC (% of vehicle control) (ob/ob mice; ob/ob mice, OGTT on day 6, 1 mg/kg QD): 61** % of vehicle control | Glucose AUC during OGTT (% of vehicle control) (ob/ob mice; ob/ob mice, day 6, 1 mg/kg QD): 67*** % of vehicle control | GTT* (% AUC of Ctrl) (ob/ob mice; protein, 1 mg/kg Qd): 67 % AUC of Ctrl

B2: FGF21: Fibroblast growth factor (FGF) 21, wild type (protein, listed as Homo sapiens)
chain: PIPDSSPLLQFGGQVRQRYLYTDDAQQTEAHLEIREDGTVGGAADQSPESLLQLKALKPGVIQILGVKTSRFLCQRPDGALYGSLHFDPEACSFRELLLEDGYNVYQSEAHGLPLHLPGNKSPHRDPAPRGPARFLPLPGLPPALPEPPGILAPQPPDVGSSDPLSMVGPSQGRSPSYAS
EC50 ([2]; Glut1 Taqman, 3T3-L1 adipocytes, 6 hrs, read-out: FGF21 (Glut1) EC50): 2.1 nM | Mean Body Weight Change (g) (SEM) (DIO mice; Day 7): +1.4 g | Mean Glucose AUC (% of vehicle control) (DIO mice; OGTT Day 7): 99 % of vehicle control

B3: FGF21ΔH-D79C: FGF21 cysteine mutant, SEQ ID NO:12 (protein, listed as Homo sapiens)
chain: PIPDSSPLLQFGGQVRQRYLYTDDAQQTEAHLEIREDGTVGGAADQSPESLLQLKALKPGVIQILGVKTSRFLCQRPCGALYGSLHFDPEACSFRELLLEDGYNVYQSEAHGLPLHLPGNKSPHRDPAPRGPARFLPLPGLPPALPEPPGILAPQPPDVGSSDPLSMVGPSQGRSPSYAS
EC50 ([2]; differentiated 3T3-L1 adipocytes, 6 hrs, protein or antibody conjugate as labelled, read-out: Glut1 Taqman assay EC50): 2.1 nM | Cumulative body weight change, mean body weight ([4]; FIG. 6A, single dose 2 mg/kg): 2.1 g | stability upon freeze/thaw cycles ([8]; freeze (−80 C) and thaw (4° C.) 9 times, RP-HPLC, SEC and Ellman assay): Neither sample showed any difference between cycle 1 and cycles 9 | stability (oxidation, dimerization) ([8]; neutral pH 7.4, 4° C., seven-day incubation): stable | portion oxidized ([8]; pH 6.0, 4° C., three-day incubation): more than half | mean glucose AUC % during OGTT (ob/ob mice; ob/ob mice, single dose 10 mg/ml (so in the source)): 54%
